Test results: patent US6150168

Assays:
[1] = molecular target: ASOR receptor (asialoglycoprotein receptor) on primary mouse hepatocytes (mouse) (UniProt P34927)
[2] = molecular target: ASOR receptor (asialoglycoprotein receptor) on primary mouse hepatocytes (mouse) (UniProt P34927); remark: listed apart in the source
[3] = molecular target: ASOR receptor (asialoglycoprotein receptor) on primary mouse hepatocytes (mouse) (UniProt P34927); details: scale: % conversion of phenylalanine to tyrosine
[4] = molecular target: adenovirus receptor on primary mouse hepatocytes (mouse)
[5] = molecular target: ASOR receptor (asialoglycoprotein receptor) on primary mouse hepatocytes (mouse) (UniProt P34927); remark: listed apart in the source
[6] = molecular target: ASOR receptor on HepG2 cells

Substance: ASOR/poly-L-lysine conjugate (ASOR/PLL conjugate)
- canine factor IX (cFIX) level in supernatants of primary mouse hepatocytes after delivery of pCMV/cFIX with the high EDC ADV-PLL/DNA complex (µg/10^6 cells/24 hours) [1]: 0.79
- percentage of cells expressing β-gal, ASOR-PLL/DNA complexes with free adenovirus, in the presence of a 1000-fold excess of free ASOR [2]: < 2 % of cells
- percentage of cells staining blue, complex containing adenovirus conjugated with PLL at high EDC concentrations, in the presence of a 1000-fold excess of free ASOR [2]: < 30 % of cells
- percentage of cells staining positive for beta-gal, complex containing adenovirus conjugated with PLL at low EDC concentrations, in the presence of a 1000-fold excess of free ASOR [2]: 80 % of cells
- phenylalanine hydroxylase activity (percent conversion of phenylalanine to tyrosine) in PAH deficient mouse hepatocytes after delivery of CMV/hPAH DNA in complex form with adenovirus [3]: 26

Substance: adenovirus (d1312) conjugated with PLL at low EDC concentrations
- percentage of cells staining positive for beta-gal after delivery with the low EDC ADV-PLL/DNA complex, in the presence of a 1000-fold excess of free ASOR [4]: 80 % of cells

Substance: asialoorosomucoid (ASOR) (ligand)
- internalized ^3 H counts after a 2 hour incubation (dose-response of ^3 H-ASOR uptake) (molecules/cell) [5]: 320000
- internalized ^3 H counts after a 2 hour incubation (dose-response of ^3 H-ASOR uptake) (molecules/cell) [6]: 150000
